Data reported in article PMC11439917 (Nature Communications, 2024).

Target: human full-length LRRK2 (leucine-rich repeat kinase 2), purified (human, UniProt Q5S007 1-2527)
Assay: cryo-EM structure

Chain of human full-length LRRK2 (leucine-rich repeat kinase 2), purified (Q5S007 whole entry): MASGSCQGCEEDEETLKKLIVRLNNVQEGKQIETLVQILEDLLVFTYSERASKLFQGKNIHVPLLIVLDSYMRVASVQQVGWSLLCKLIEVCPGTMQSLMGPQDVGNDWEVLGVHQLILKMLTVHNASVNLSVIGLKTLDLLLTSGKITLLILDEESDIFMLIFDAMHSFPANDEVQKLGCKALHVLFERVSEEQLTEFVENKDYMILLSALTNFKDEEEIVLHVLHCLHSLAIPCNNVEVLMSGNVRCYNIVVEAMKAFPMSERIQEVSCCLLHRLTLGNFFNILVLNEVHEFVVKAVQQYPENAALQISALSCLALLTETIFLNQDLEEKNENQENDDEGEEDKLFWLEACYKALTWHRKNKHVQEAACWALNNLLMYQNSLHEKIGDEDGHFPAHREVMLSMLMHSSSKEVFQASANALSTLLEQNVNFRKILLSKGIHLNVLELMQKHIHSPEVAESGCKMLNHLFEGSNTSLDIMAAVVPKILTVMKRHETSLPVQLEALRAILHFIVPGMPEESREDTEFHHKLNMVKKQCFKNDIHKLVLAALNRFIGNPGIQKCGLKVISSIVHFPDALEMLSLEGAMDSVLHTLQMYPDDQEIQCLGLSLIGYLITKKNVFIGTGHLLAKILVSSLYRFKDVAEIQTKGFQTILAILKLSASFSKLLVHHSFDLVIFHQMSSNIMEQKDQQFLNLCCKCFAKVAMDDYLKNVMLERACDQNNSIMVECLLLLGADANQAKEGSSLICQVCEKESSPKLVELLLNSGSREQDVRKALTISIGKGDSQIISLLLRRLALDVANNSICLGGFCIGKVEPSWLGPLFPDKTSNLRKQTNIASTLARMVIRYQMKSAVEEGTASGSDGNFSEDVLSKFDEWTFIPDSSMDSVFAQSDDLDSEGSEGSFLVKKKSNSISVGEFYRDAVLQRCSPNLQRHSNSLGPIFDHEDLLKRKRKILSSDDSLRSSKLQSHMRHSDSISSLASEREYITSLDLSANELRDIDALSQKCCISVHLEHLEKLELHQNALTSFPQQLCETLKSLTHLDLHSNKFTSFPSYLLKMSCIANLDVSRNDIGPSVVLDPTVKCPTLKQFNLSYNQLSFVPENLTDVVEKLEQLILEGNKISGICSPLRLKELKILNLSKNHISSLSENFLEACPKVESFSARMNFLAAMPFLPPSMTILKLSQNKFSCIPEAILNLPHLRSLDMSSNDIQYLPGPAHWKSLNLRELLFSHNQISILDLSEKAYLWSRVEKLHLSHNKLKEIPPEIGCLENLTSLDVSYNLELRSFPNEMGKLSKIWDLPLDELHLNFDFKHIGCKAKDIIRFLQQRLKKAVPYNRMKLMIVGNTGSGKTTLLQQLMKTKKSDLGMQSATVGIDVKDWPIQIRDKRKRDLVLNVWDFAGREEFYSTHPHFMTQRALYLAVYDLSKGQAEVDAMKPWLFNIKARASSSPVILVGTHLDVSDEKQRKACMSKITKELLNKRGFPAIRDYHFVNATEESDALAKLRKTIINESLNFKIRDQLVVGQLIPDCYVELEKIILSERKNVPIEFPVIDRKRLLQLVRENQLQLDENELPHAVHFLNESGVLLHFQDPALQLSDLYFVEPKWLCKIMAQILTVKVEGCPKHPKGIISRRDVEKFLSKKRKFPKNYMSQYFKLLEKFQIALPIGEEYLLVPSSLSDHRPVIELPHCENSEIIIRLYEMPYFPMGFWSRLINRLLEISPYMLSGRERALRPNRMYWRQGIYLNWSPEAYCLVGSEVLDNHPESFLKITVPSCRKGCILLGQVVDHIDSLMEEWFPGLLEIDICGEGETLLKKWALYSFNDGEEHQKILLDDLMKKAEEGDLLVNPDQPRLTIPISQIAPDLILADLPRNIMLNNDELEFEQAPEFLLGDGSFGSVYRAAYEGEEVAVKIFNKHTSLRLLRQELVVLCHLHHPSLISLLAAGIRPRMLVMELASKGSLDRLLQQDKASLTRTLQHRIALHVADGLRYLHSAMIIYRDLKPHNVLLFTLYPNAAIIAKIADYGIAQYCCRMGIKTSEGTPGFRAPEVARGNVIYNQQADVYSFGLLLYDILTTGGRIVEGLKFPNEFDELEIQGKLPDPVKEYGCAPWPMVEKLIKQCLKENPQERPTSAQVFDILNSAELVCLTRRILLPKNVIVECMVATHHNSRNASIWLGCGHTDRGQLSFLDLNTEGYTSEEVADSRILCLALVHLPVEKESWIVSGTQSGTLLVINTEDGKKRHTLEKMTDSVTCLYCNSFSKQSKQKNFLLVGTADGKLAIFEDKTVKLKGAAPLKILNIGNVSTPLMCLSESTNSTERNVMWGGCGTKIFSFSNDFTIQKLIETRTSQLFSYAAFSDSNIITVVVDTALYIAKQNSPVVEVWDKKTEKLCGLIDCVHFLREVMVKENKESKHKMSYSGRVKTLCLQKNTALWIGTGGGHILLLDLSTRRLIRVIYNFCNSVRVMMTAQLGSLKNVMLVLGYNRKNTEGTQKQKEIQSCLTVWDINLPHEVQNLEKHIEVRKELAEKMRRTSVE

B1: human RAB12 (residues 36-211) Q101L, GppNHp-bound (domain or fragment)
chain: PRPADFKLQVIIIGSRGVGKTSLMERFTDDTFCEACKSTVGVDFKIKTVELRGKKIRLQIWDTAGLERFNSITSAYYRSAKGIILVYDITKKETFDDLPKWMKMIDKYASEDAELLLVGNKLDCETDREITRQQGEKFAQQITGMRFCEASAKDNFNVDEIFLKLVDDILKKMPLD
binding result: binds
